The record followed here is US20120107301A1.

The target in test [1] is recombinant human L-SIGN (human) (UniProt Q9H2X3). Kind of test: ELISA on recombinant L-SIGN.
In test [2] the target is recombinant human DC-SIGN (human) (UniProt Q9NNX6). Kind of test: ELISA on recombinant DC-SIGN. (In general: ELISA stands for enzyme-linked immunosorbent assay.)
Test [3] has as its target L-SIGN expressed on K562 cells (human) (UniProt Q9H2X3). Briefly: flow cytometry on K562/L-SIGN cells. (In general: Flow cytometry measures light scatter and fluorescence of single cells or particles in a stream.)

UniProt Q9NNX6, sequence (Q9NNX6 59-404 limits assumed): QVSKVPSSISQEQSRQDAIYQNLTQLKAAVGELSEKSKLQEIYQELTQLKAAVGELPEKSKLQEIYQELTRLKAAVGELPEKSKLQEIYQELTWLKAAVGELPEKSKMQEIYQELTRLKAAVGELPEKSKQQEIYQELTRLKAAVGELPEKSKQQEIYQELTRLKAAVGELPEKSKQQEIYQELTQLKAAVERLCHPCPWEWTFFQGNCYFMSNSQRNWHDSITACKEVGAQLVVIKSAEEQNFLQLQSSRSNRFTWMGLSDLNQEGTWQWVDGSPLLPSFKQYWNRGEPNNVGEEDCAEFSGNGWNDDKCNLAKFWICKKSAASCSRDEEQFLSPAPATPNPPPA

B1: additional IgG1k antibody clone A10 (antibody, from a related filing, V domains shown)
VH: EVQLQQSGPELEKPGASVKISCKASGYSFTGYNMNWVKQSNGKSLEWIGNIDPYYGDITYNQKFKGKATLTVDKSSSTAYMQLKSLTSEDSAVYYCARTATALYTMDYWGQGTSVTVSS
VL: EIVLTQSPAIMSASLGERVTMTCTASSSVSSSYLHWYQQKPGSSPKLWIYSTSNLASGVPARFSGSGSGTSYSLTISSMEAEDAATYYCHQYHRSPQTFGGGTKLEIK
B1: the values for the OD405 in test [1] and in test [2] were 2.9 OD405 and 0.1 OD405, respectively. In test [3], this molecule came in with a Geo. Mean Flourecence of 21.3.
